From PMC9631798, “Engineered human cytokine/antibody fusion proteins expand regulatory T cells and confer autoimmune disease protection” (Cell reports, 2022)

B1: F5111 antibody (antibody, V domains shown)
VH: QLQLQESGPGLVKPSQTLSLTCTVSGGSISSGGYYWSWIRQHPGKGLEWIGYIYYSGSTYYNPSLKSRVTISVDTSKNQFSLKLSSVTAADTAVYYCARTPTVTGDWFDPWGRGTLVTVSS
VL: NFMLTQPHSVSESPGKTVTISCTRSSGSIASNYVQWYQQRPGSSPTTVIYEDNQRPSGVPDRFSGSIDSSSNSASLTISGLKTEDEADYYCQSYDSSNVVFGGGTKLTVL
notes: human IgG1 constant heavy chain; human lambda constant chain; human IgG1 lambda; anti-hIL-2; also called F5111 Ab; F5111 human immunoglobulin G1 (IgG1) antibody; source: HEK 293F, transient co-transfection of HC and LC plasmids, purified (protein G, SEC); copies: 2 + 2
B2: F5111.2 Antibody (N297A) (antibody, V domains shown)
VH: QLQLQESGPGLVKPSQTLSLTCTVSGGSISSGGYYWSWIRQHPGKGLEWIGYIYKSGSAYYSPSLKSRVTISVDTSKNQFSLKLSSVTAADTAVYYCARTPTVTGDWFDPWGRGTLVTVSS
VL: NFMLTQPHSVSESPGKTVTISCTRSSGSIASNYVQWYQQRPGSSPTTVIYEDNQRPSGVPDRFSGSIDSSSNSASLTISGLKTEDEADYYCQTYDSIDVYFGGGTKLTVL
notes: as the VH of m21 (F5111.2; human IgG1 constant heavy chain with N297A in the Fc region; 297 is EU numbering); as the VL of m21 (F5111.2); human lambda constant chain; in all studies the F5111.2 antibody includes N297A; the isotype platform is stated for F5111 only; source: HEK 293F, transient co-transfection, purified (protein G, SEC); copies: 2 + 2

Tests used:
Biotinylated human IL-2 = target: T1, Biotinylated human IL-2 (Homo sapiens, UniProt P60568, biotin on the biotin acceptor peptide (BirA ligase)); assay: BLI; biotinylated hIL-2, hIL-2Rα or hIL-2Rβ immobilised on streptavidin biosensors; serial dilutions of analyte in PBSA (PBS pH 7.2, 0.1% BSA); 300 s association, 600 s dissociation; equilibrium titration, first-order fit; F5111 IC LN25 and LN35 as SEC peak P3, LN15 as majority peak; cytokine/antibody complexes pre-formed at 1:1 molar ratio, 60 minutes at 37°C; conditions: both partners purified
T1 construct: human interleukin-2; limits not restated for this construct (hIL-2 is residues 1-133 in the other constructs); the hexahistidine tag follows the BAP; also called biotinylated hIL-2; hIL-2 (immobilised); source: HEK 293F (gWiz vector), purified (Ni-NTA, SEC), biotinylated with BirA

[1] = target: T2, yeast-displayed mIL-2 (residues 1-149) (Mus musculus, UniProt P04351); assay: flow cytometry on cells; yeast surface display: hIL-2 or mIL-2 displayed on yeast (Aga2 fusion); serial dilutions of recombinant F5111 antibody, 2 hours at room temperature in PBE (PBS, 0.1% BSA, 1 mM EDTA); detected with anti-human IgG Fc APC; first-order binding model; conditions: one partner purified
T2 construct: mouse interleukin-2, residues 1-149; a 3C protease site lies between Aga2 and the cytokine; also called mouse IL-2; not shown: Aga2 (yeast agglutinin protein), N-terminal, kept

[2] = target: T3, yeast-displayed hIL-2 (residues 1-133) (human, UniProt P60568); assay: as above; conditions: one partner purified
T3 construct: human interleukin-2, residues 1-133; a 3C protease site lies between Aga2 and the cytokine; not shown: Aga2 (yeast agglutinin protein), N-terminal, kept
T3 sequence (P60568 21-153): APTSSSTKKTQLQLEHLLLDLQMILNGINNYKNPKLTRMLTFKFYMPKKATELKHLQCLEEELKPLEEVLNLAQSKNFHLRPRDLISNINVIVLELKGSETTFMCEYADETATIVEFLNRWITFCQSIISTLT

T1 sequence (P60568 21-153): as above
T2 sequence (P04351 21-169): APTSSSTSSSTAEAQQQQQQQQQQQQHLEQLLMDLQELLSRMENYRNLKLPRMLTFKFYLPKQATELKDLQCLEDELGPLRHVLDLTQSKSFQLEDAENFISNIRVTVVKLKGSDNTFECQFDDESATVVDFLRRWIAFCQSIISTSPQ

Row | Binder | binding result (Biotinylated human IL-2) | binding result [1] | binding result [2]
1 | B1 | binds | no binding | binds
2 | B2 | binds | – | –
